The target in assay [1] is T1, His-tagged full-length c-MYC (human, UniProt P01106-1 1-439). Put plainly: SPR.
The target of assay [2] is His-tagged C-terminal c-MYC (human). Briefly: SPR. (In general: SPR reads the build-up and loss of mass on a sensor chip optically.)
Assay [3] addresses T2, His-tagged full-length N-MYC (human, UniProt P04198 1-464).
T2 chain: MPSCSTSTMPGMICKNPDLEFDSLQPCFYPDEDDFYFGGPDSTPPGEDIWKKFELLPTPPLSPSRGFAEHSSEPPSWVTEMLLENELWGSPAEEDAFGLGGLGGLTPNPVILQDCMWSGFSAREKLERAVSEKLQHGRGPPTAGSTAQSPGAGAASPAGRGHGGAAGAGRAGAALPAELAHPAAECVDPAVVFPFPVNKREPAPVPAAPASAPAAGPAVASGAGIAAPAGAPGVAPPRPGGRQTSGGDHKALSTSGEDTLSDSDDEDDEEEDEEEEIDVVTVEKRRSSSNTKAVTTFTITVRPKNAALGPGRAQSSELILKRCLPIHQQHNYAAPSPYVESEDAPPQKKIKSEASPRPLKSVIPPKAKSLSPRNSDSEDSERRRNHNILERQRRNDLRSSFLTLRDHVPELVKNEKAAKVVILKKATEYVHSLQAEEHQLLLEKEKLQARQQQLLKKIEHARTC
Put plainly: SPR.

The target in assay [4] is T1, His-tagged full-length c-MYC. Briefly: SPR. The source holds these as a separate data set.
Assay [5] addresses T3, His-tagged MAX (human, UniProt P61244 1-160). Put plainly: SPR.
For assay [6], the target named is T3, His-tagged MAX. Briefly: SPR; repeat.

Where two headings read alike, the source gives them in different places.

T3 sequence (P61244 whole entry): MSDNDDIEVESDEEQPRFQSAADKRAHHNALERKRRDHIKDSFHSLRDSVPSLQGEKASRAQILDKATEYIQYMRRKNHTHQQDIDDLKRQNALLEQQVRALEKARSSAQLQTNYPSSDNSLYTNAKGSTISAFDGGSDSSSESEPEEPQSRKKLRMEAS
T1 sequence (P01106 16-454): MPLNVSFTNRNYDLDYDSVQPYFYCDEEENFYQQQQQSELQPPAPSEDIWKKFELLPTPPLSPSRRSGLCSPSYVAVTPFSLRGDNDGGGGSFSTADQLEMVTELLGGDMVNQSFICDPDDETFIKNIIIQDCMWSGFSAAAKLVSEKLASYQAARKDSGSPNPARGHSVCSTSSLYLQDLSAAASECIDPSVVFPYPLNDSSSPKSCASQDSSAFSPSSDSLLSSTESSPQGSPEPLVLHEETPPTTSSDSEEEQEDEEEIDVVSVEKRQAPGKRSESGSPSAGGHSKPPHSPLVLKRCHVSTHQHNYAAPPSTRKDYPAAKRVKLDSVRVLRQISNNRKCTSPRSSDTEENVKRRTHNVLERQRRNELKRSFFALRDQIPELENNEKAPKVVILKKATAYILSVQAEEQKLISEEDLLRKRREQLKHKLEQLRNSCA
His-tagged C-terminal c-MYC (human), sequence (chain, as listed by the source): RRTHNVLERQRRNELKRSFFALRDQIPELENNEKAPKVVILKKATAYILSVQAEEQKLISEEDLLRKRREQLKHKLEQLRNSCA

B1: Lon AAA+ domain peptide (aa 241-584) (domain or fragment)
chain: LGEMDDAPDENEALKRKIDAAKMPKEAKEKAEAELQKLKMMSPMSAEATVVRGYIDWMVQVPWNARSKVKKDLRQAQEILDTDHYGLERVKDRILEYLAVQSRVNKIKGPILCLVGPPGVGKTSLGQSIAKATGRKYVRMALGGVRDEAEIRGHRRTYIGSMPGKLIQKMAKVGVKNPLFLLDEIDKMSSDMRGDPASALLEVLDPEQNVAFSDHYLEVDYDLSDVMFVATSNSMNIPAPLLDRMEVIRLSGYTEDEKLNIAKRHLLPKQIERNALKKGELTVDDSAIIGIIRYYTREAGVRGLEREISKLCRKAVKQLLLDKSLKHIEINGDNLHDYLGVQRF
By Kd is commonly meant the equilibrium constant for the complex coming apart. Low readings indicate tighter binding, high ones weaker binding. As to B1, binding in assay [1] was put at a Kd of 534 nM.

B2: Lon peptidase domain peptide (aa 581-778) (domain or fragment)
chain: VQRFDYGRADNENRVGQVTGLAWTEVGGDLLTIETACVPGKGKLTYTGSLGEVMQESIQAALTVVRARAEKLGINPDFYEKRDIHVHVPEGATPKDGPSAGIAMCTALVSCLTGNPVRADVAMTGEITLRGQVLPIGGLKEKLLAAHRGGIKTVLIPFENKRDLEEIPDNVIADLDIHPVKRIEEVLTLALQNEPSGM
B2: binding in assay [1] was characterised by a dissociation constant (Kd) of 849 nM. Against the preceding molecule, the Kd is about 1.6-fold higher.

B3: recombinant Escherichia coli Lon protease (aa 1-778) (enzyme)
chain: MNPERSERIEIPVLPLRDVVVYPHMVIPLFVGREKSIRCLEAAMDHDKKIMLVAQKEASTDEPGVNDLFTVGTVASILQMLKLPDGTVKVLVEGLQRARISALSDNGEHFSAKAEYLESPTIDEREQEVLVRTAISQFEGYIKLNKKIPPEVLTSLNSIDDPARLADTIAAHMPLKLADKQSVLEMSDVNERLEYLMAMMESEIDLLQVEKRIRNRVKKQMEKSQREYYLNEQMKAIQKELGEMDDAPDENEALKRKIDAAKMPKEAKEKAEAELQKLKMMSPMSAEATVVRGYIDWMVQVPWNARSKVKKDLRQAQEILDTDHYGLERVKDRILEYLAVQSRVNKIKGPILCLVGPPGVGKTSLGQSIAKATGRKYVRMALGGVRDEAEIRGHRRTYIGSMPGKLIQKMAKVGVKNPLFLLDEIDKMSSDMRGDPASALLEVLDPEQNVAFSDHYLEVDYDLSDVMFVATSNSMNIPAPLLDRMEVIRLSGYTEDEKLNIAKRHLLPKQIERNALKKGELTVDDSAIIGIIRYYTREAGVRGLEREISKLCRKAVKQLLLDKSLKHIEINGDNLHDYLGVQRFDYGRADNENRVGQVTGLAWTEVGGDLLTIETACVPGKGKLTYTGSLGEVMQESIQAALTVVRARAEKLGINPDFYEKRDIHVHVPEGATPKDGPSAGIAMCTALVSCLTGNPVRADVAMTGEITLRGQVLPIGGLKEKLLAAHRGGIKTVLIPFENKRDLEEIPDNVIADLDIHPVKRIEEVLTLALQNEPSGM
modifications: His-tag omitted. The paper does not print the limits of Origene TP762404. Limits follow the paper's modelled C-terminal part, c-MYC aa 356-439 in 439-aa numbering, shifted by +15 to the 454-aa entry (bHLH-leucine zipper to the C-terminus). The bought construct may start earlier.
B3 yielded a dissociation constant (Kd) in assay [2] of 398 nM. This lies in the sub-micromolar range.

B4: recombinant Escherichia coli Lon protease (aa 1-778) (enzyme)
chain: MNPERSERIEIPVLPLRDVVVYPHMVIPLFVGREKSIRCLEAAMDHDKKIMLVAQKEASTDEPGVNDLFTVGTVASILQMLKLPDGTVKVLVEGLQRARISALSDNGEHFSAKAEYLESPTIDEREQEVLVRTAISQFEGYIKLNKKIPPEVLTSLNSIDDPARLADTIAAHMPLKLADKQSVLEMSDVNERLEYLMAMMESEIDLLQVEKRIRNRVKKQMEKSQREYYLNEQMKAIQKELGEMDDAPDENEALKRKIDAAKMPKEAKEKAEAELQKLKMMSPMSAEATVVRGYIDWMVQVPWNARSKVKKDLRQAQEILDTDHYGLERVKDRILEYLAVQSRVNKIKGPILCLVGPPGVGKTSLGQSIAKATGRKYVRMALGGVRDEAEIRGHRRTYIGSMPGKLIQKMAKVGVKNPLFLLDEIDKMSSDMRGDPASALLEVLDPEQNVAFSDHYLEVDYDLSDVMFVATSNSMNIPAPLLDRMEVIRLSGYTEDEKLNIAKRHLLPKQIERNALKKGELTVDDSAIIGIIRYYTREAGVRGLEREISKLCRKAVKQLLLDKSLKHIEINGDNLHDYLGVQRFDYGRADNENRVGQVTGLAWTEVGGDLLTIETACVPGKGKLTYTGSLGEVMQESIQAALTVVRARAEKLGINPDFYEKRDIHVHVPEGATPKDGPSAGIAMCTALVSCLTGNPVRADVAMTGEITLRGQVLPIGGLKEKLLAAHRGGIKTVLIPFENKRDLEEIPDNVIADLDIHPVKRIEEVLTLALQNEPSGM
On to B4, for which the Kd in assay [3] was 332 nM; in assay [4], 382 nM; with His-tagged MAX [5] it was 164 nM; in the assay with His-tagged MAX [6] it was 174 nM.

B5: Lon N-terminal domain peptide (aa 1-245) (domain or fragment)
chain: MNPERSERIEIPVLPLRDVVVYPHMVIPLFVGREKSIRCLEAAMDHDKKIMLVAQKEASTDEPGVNDLFTVGTVASILQMLKLPDGTVKVLVEGLQRARISALSDNGEHFSAKAEYLESPTIDEREQEVLVRTAISQFEGYIKLNKKIPPEVLTSLNSIDDPARLADTIAAHMPLKLADKQSVLEMSDVNERLEYLMAMMESEIDLLQVEKRIRNRVKKQMEKSQREYYLNEQMKAIQKELGEMD
Take B5: the Kd is 402 nM in assay [3], 462 nM in assay [4], 294 nM in the assay with His-tagged MAX [5] and 1690 nM with His-tagged MAX [6].

B6: Lon N-terminal domain peptide (aa 1-245) (domain or fragment)
chain: MNPERSERIEIPVLPLRDVVVYPHMVIPLFVGREKSIRCLEAAMDHDKKIMLVAQKEASTDEPGVNDLFTVGTVASILQMLKLPDGTVKVLVEGLQRARISALSDNGEHFSAKAEYLESPTIDEREQEVLVRTAISQFEGYIKLNKKIPPEVLTSLNSIDDPARLADTIAAHMPLKLADKQSVLEMSDVNERLEYLMAMMESEIDLLQVEKRIRNRVKKQMEKSQREYYLNEQMKAIQKELGEMD
modifications: His-tag omitted. The paper does not print the limits of Origene TP762404. Limits follow the paper's modelled C-terminal part, c-MYC aa 356-439 in 439-aa numbering, shifted by +15 to the 454-aa entry (bHLH-leucine zipper to the C-terminus). The bought construct may start earlier.
B6 had a Kd in assay [2] of 495 nM.

(Values after PMC11861601 (2025).)
